According to patent US20090181009A1 (ARCA BIOPHARMA, published 2009):
Values belong to the binder of their own block, whether it stands above or below them.

What was measured:
[1] = biological target: T1, human NTB-A (full-length, on cells) (human, UniProt Q96DU3 22-332); test: cell-based or functional assay
T1 sequence: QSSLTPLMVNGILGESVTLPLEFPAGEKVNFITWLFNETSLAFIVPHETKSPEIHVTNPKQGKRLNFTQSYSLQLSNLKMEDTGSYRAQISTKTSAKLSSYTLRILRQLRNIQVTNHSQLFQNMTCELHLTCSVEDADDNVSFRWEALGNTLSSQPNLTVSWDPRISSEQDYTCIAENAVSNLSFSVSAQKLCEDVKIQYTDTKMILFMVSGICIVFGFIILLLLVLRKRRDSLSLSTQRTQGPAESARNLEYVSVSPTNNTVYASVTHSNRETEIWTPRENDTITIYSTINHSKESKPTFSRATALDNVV

[2] = biological target: T2, NTB-A Δ5 deletion construct (human, UniProt Q96DU3 22-64); test: flow cytometry on 293 cells expressing the deletion construct
T2 construct: Expressed in 293 cells and read by flow cytometry
T2 chain: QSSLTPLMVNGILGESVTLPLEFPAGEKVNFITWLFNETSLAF

[3] = biological target: T3, NTB-A Δ4 deletion construct (human, UniProt Q96DU3 22-94); test: as above
T3 construct: Expressed in 293 cells and read by flow cytometry
T3 sequence: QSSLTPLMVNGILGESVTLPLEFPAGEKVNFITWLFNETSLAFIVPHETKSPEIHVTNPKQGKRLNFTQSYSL

[4] = biological target: T4, NTB-A extracellular domain fused to a C-terminal tag of V5-His (NTB-A-ECD-V5His) (human); test: SPR (BIAcore), mAb captured by anti-mouse mAb, antigen in solution, 25° C.
T4 construct: Produced in HEK-293 cells; also called recombinant NTB-A protein; NTB-A V5-6His
T4 chain: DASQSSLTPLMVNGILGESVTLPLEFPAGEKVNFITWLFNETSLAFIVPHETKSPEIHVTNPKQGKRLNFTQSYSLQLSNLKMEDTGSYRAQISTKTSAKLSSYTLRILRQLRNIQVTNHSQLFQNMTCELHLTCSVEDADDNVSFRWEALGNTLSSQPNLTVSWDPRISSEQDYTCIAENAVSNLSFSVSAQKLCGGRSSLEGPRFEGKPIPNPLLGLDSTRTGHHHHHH
Procedure: (§1) Kinetic rate constants (kₐ and kd) were determined using surface plasmon resonance and affinities (KD) were then calculated from the rate constants (kd/kₐ). Surface plasmon resonance was carried out on a BIAcore system (Biacore International AB, Uppsala, Sweden). […] Antigen was diluted to a starting concentration of 46 nM and tested for binding to the mAb samples using a 3-fold dilution series. Each of 5 concentrations was tested twice except the highest concentration which was tested 5 times in total, two times with a short dissociation of 300 seconds followed by three times with a dissociation of 60 minutes. The data sets from the long dissociation experiments were globally fit with the shorter […] experiments to determine binding constants for the interactions. The analysis was carried out in HBS, pH 7.4 buffer at 25° C. (Canziani et al, Anal. Biochem. 352:301-307 […]).

[5] = biological target: T4, NTB-A extracellular domain fused to a …; test: SPR (BIAcore), mAb captured by anti-mouse mAb, antigen in solution, 25° C.; KD = kd/ka
Procedure: as §1

binding result [2]: no binding
binding result [3]: no binding
B1: anti-NTB-A monoclonal antibody 994.1 (antibody, mouse IgG2b, V domains shown)
VH: QIQLVQSGPDLKNPGKTVKISCKASGYTFTNFGMNWVKQSPERGLKWMGWINTYNGKPTYADDFKGQFAFSLETSATTAYLQINNLKNEDTAAYFCAKRGGTVDFGYWGQGTTLTVSS
VL: EVVLTQSPTTMAASPGEKITVTCSASSPISSNFLHWYQQKPGFSPKLFIYRTSILASGVPARFSGSGSGTSFSLTIGAMEAEDVAAYYCQQGIYMPLTFGAGTKLELKR
notes: Murine IgG2b from a hybridoma; also called ATCC Deposit No. PTA-7831
EC50 of complement-dependent cytotoxicity (CDC) on CA46 cells [1]: ~10 ng/mL

EC50 of CDC on cells from CLL patients [1]: 9 to 15 ng/mL
binding result [2]: no binding
binding result [3]: no binding
koff [4]: 0.0005 s⁻¹
kon [4]: 404000 M⁻¹ s⁻¹
Kd [5]: 1.25 nM
B2: anti-NTB-A monoclonal antibody 480.12 (antibody, mouse IgG2b, V domains shown)
VH: QIQLVQSGPELKKPGETVKISCKASGYTFTNFGMNWVKQAPGKGLKWMGWINTYSGEATYADDFKGRFAFSLETSASTAFLQISNLKNEDTATYFCARRGGTAEFDYWGQGTPLTVSSA
VL: EIVLTQSPTTVAASPGEKITITCSASSSISSNFLHWYQQKPGFSPKLLIYRTSKLASGVPGRFSGSGSGTSYSLTIGTMEAEDVATYYCQQGIYMPLTVGAGTKLELKRA
notes: Murine IgG2b from a hybridoma; also called ATCC Deposit No. PTA-7832
